From the Human Domainome abundance scans (Beltran et al. 2025)
± gives the uncertainty stated by the source.

B1: Probable E3 ubiquitin-protein ligase MID2, residues 191 to 235; numbered along this chain, Q9UJV3 (parent)
chain: RGITCLDHENEKVNMYCVSDDQLICALCKLVGRHRDHQVASLNDR

Variants of: B1
Test: abundance fitness (aPCA) (normalised: wild type 0, dead -1); higher = more abundant; growth selection in yeast, the domain comes from the species named
Conditions: Homo sapiens

Row | Variant | abundance fitness
1 | RGITCLDHENEKVNMYCVSDDQLICALEKLVGRHRDHQVASLNDR [C28E] | -0.897 ± 0.2
2 | RGITCLDHENEKVNMYCVSDDQLICALCKLVGRHRDHQVASLNDM [R45M] | -0.201 ± 0.2
3 | RGITCLDHENEKVNMYCVSDDQLICALCKLVGRHRDHQVASLNDF [R45F] | 0.151 ± 0.23
4 | RGITCLDHENEKVNMACVSDDQLICALCKLVGRHRDHQVASLNDR [Y16A] | 0.077 ± 0.089
5 | RGITCLDHENEKVNMLCVSDDQLICALCKLVGRHRDHQVASLNDR [Y16L] | -0.127 ± 0.063
6 | RGITCLDHENEKVNMCCVSDDQLICALCKLVGRHRDHQVASLNDR [Y16C] | -0.176 ± 0.14
7 | RGITCLDHYNEKVNMYCVSDDQLICALCKLVGRHRDHQVASLNDR [E9Y] | -0.051 ± 0.13
8 | RGITCLDHANEKVNMYCVSDDQLICALCKLVGRHRDHQVASLNDR [E9A] | 0.098 ± 0.046
9 | RGITCLDHENEKVNMYCVSDDQLIFALCKLVGRHRDHQVASLNDR [C25F] | -0.468 ± 0.084
10 | RGITCLDHENEKVNMYCVSDDQLIYALCKLVGRHRDHQVASLNDR [C25Y] | -0.841 ± 0.26
11 | RGITCVDHENEKVNMYCVSDDQLICALCKLVGRHRDHQVASLNDR [L6V] | 0.021 ± 0.045
12 | RGITCSDHENEKVNMYCVSDDQLICALCKLVGRHRDHQVASLNDR [L6S] | 0.118 ± 0.051
13 | RGITCNDHENEKVNMYCVSDDQLICALCKLVGRHRDHQVASLNDR [L6N] | -0.22 ± 0.26
14 | RGITCLDHENEKVNMYCVSDDQLICALCFLVGRHRDHQVASLNDR [K29F] | -0.132 ± 0.2
15 | RGITCLDHENEKVNMYCVSDDQLICALCMLVGRHRDHQVASLNDR [K29M] | -0.029 ± 0.17
16 | RGITCLDHENEKVNMYCVSDDQLICALCKLVGNHRDHQVASLNDR [R33N] | -0.127 ± 0.094
17 | RGITCLDHENEKVNMYCVSDDQLICALCKLVGYHRDHQVASLNDR [R33Y] | -0.088 ± 0.24
18 | RGITCLDHENEKVNMYCVSDDQLICALCKLVGLHRDHQVASLNDR [R33L] | -0.026 ± 0.064
19 | RGITCLDHENEKVNMYCVSDDQLICALCKLVGMHRDHQVASLNDR [R33M] | -0.046 ± 0.24

Row | Variant | abundance fitness
20 | RGITCLDHENEKVNMYCVSDQQLICALCKLVGRHRDHQVASLNDR [D21Q] | -0.132 ± 0.063
21 | RGITCLDHENEKVNMYCVSDTQLICALCKLVGRHRDHQVASLNDR [D21T] | -0.163 ± 0.057
22 | RGITCLDHENEKVNMYCVSDDQLICALCKLVGRHRDHQVASQNDR [L42Q] | -0.134 ± 0.078
23 | RGITCLDHENEKVNMYCVSDDQLICALCKLVGRNRDHQVASLNDR [H34N] | -0.474 ± 0.12
24 | RGITCLDHENEKVNMYCVSDDQLICALCKLVGRERDHQVASLNDR [H34E] | -0.368 ± 0.12
25 | RGITCLDHENEKVNTYCVSDDQLICALCKLVGRHRDHQVASLNDR [M15T] | -0.1 ± 0.069
26 | RGITCLDHENEKVNMYCVSDDQLICALCKLIGRHRDHQVASLNDR [V31I] | -0.091 ± 0.075
27 | RGITCLDHENEKVNMYCVSDDQLICALCKLPGRHRDHQVASLNDR [V31P] | 0.014 ± 0.057
28 | RGITCLDHENEKVNMYCVSDDQLICALCKLLGRHRDHQVASLNDR [V31L] | -0.122 ± 0.058
29 | RGITCLDHENEKVNMYCVSDDQLICALCKLSGRHRDHQVASLNDR [V31S] | 0.06 ± 0.05
30 | RGITCLDHENEKVTMYCVSDDQLICALCKLVGRHRDHQVASLNDR [N14T] | 0.049 ± 0.068
31 | RGITCLDHENEKVGMYCVSDDQLICALCKLVGRHRDHQVASLNDR [N14G] | -0.021 ± 0.05
32 | RGITCLDHENEKVDMYCVSDDQLICALCKLVGRHRDHQVASLNDR [N14D] | -0.132 ± 0.1
33 | RGITCLDHENEKVWMYCVSDDQLICALCKLVGRHRDHQVASLNDR [N14W] | -0.482 ± 0.11
34 | RGITCLDHENEKVNMYCVSDDQLICALCKLVGRHRDHQVASLNMR [D44M] | -0.187 ± 0.17
35 | RGITCLDHENEKVNMYCVSDDQLICALCKLVGRHRDHQVASLNFR [D44F] | -0.422 ± 0.12
36 | RGITCLDHENEKVNMYCVSDDDLICALCKLVGRHRDHQVASLNDR [Q22D] | -0.19 ± 0.2
37 | RGITCLDHENEKVNMYCVSDDQLICALCKLVDRHRDHQVASLNDR [G32D] | -0.337 ± 0.23
38 | RGITCLDHENEKVNMYCVSDDQLICALCKLVHRHRDHQVASLNDR [G32H] | -0.185 ± 0.08

Row | Variant | abundance fitness
39 | RGITCLDHENEKVNMYCVSDDQLICALCKLVGRHRDTQVASLNDR [H37T] | -0.295 ± 0.065
40 | RGITCLDHENEKVNMYCVSDDQLICALCKLVGRHRDYQVASLNDR [H37Y] | -0.519 ± 0.12
41 | RGITCLDHENEKVNMYCFSDDQLICALCKLVGRHRDHQVASLNDR [V18F] | -0.112 ± 0.11
42 | RGITCLDHENEKVNMYCSSDDQLICALCKLVGRHRDHQVASLNDR [V18S] | 0.027 ± 0.056
43 | SGITCLDHENEKVNMYCVSDDQLICALCKLVGRHRDHQVASLNDR [R1S] | -0.187 ± 0.059
44 | KGITCLDHENEKVNMYCVSDDQLICALCKLVGRHRDHQVASLNDR [R1K] | -0.211 ± 0.14
45 | RGITCLDHENEKVNMYCVSDDQLICALCKCVGRHRDHQVASLNDR [L30C] | 0.026 ± 0.075
46 | RGITCLDHENEKVNMYCVSDDQLICALCKNVGRHRDHQVASLNDR [L30N] | 0.078 ± 0.13
47 | RGITCLDHENEKVNMYCVSDDQLICALCKQVGRHRDHQVASLNDR [L30Q] | 0.109 ± 0.06
48 | RGITCLDHENEKVNMYCVSDDQLICALCKAVGRHRDHQVASLNDR [L30A] | 0.159 ± 0.057
49 | RGITCLDHENEKVNMYCVSDDQLICALCKSVGRHRDHQVASLNDR [L30S] | 0.189 ± 0.073
50 | RGITCLDHENEKVNMYCVSDDQLICALCKDVGRHRDHQVASLNDR [L30D] | 0.183 ± 0.072
51 | RGITCLDHENEKVNMYCVHDDQLICALCKLVGRHRDHQVASLNDR [S19H] | 0.093 ± 0.11
52 | RGITCLDHENEKVNMYCVEDDQLICALCKLVGRHRDHQVASLNDR [S19E] | 0.07 ± 0.057
53 | RGITCLDHENEKVNMYCVDDDQLICALCKLVGRHRDHQVASLNDR [S19D] | -0.18 ± 0.11
54 | RGITCLDHENEKVNMYCVWDDQLICALCKLVGRHRDHQVASLNDR [S19W] | -0.211 ± 0.061
55 | RGITCLDHENEKVNMYCVQDDQLICALCKLVGRHRDHQVASLNDR [S19Q] | 0.097 ± 0.06
56 | RGITCLDHENEKVNMYCVFDDQLICALCKLVGRHRDHQVASLNDR [S19F] | -0.146 ± 0.064
57 | RGITCLDHENEKVNMYCVNDDQLICALCKLVGRHRDHQVASLNDR [S19N] | -0.092 ± 0.12
